Results published in FireProtDB (doi:10.1002/pro.5560061014).

Details: Bacillus amyloliquefaciens, pH 7.4, Thermal, DSC, Sodium phosphate 50 mM, reversible: yes, whole UniProt chain shown

B1: Barstar wild type, P11540 (protein)
chain: MKKAVINGEQIRSISDLHQTLKKELALPEYYGENLDALWDCLTGWVEYPLVLEWRQFEQSKQLTENGAESVLQVFREAKAEGCDITIILS
heat capacity change of unfolding (25 °C): 1.27 kcal/mol/K
unfolding free energy (25 °C): 23.5 kJ/mol
Tm: 72.8 °C
heat capacity change of unfolding: 1.27 kcal/mol/K
unfolding enthalpy (calorimetric): 303 kJ/mol
